What follows are binders tested against T1, human transferrin receptor (human, UniProt P02786 89-760) (assay: SPR off-rate).
T1 construct: also called huTfR; hTfR
T1 sequence (P02786 89-760 limits assumed): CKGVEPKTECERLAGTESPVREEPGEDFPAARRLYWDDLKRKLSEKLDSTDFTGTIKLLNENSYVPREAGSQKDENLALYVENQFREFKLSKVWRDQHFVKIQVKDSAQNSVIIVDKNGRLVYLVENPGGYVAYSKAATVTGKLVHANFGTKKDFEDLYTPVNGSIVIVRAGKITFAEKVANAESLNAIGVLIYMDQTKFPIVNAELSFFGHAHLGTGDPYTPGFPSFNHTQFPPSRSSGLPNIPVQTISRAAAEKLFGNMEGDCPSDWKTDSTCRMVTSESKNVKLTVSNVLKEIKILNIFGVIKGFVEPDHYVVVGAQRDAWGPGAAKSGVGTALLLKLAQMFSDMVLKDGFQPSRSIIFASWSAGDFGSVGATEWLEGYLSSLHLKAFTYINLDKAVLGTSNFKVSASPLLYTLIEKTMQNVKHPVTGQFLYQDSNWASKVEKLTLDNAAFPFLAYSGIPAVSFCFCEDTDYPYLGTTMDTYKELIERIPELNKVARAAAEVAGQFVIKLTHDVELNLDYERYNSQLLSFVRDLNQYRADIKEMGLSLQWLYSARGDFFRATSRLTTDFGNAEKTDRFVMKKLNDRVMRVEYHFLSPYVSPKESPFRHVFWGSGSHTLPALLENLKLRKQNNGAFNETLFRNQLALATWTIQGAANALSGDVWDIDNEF

koff [s⁻¹]	Binder
0.00037	clone 494 VH 0 (mu) / VL 1 (antibody, V domains shown) VH: EVQLQQSGAVLVKPGASVKLSCPASGFNIKDTYIHWVIQRPEQGLEWIGRIDPANGDTKCDPKFQVKATITADTSSNTAYLQLSSLTSEDTAVYFCVRDYLYPYYFDFWGQGTTLTVSS VL: KIQMTQSPSSLSASVGDRVTITCRASESVDTYVSWYQQKPGKAPKLLIYGASNRYTGVPSRFSGSGSGTDFTLTISSLQPEDFADYYCGQTYNYPLTFGQGTKLEI
0.000542	clone 494 VH 0 (mu) / VL 4 (antibody, V domains shown) VH: EVQLQQSGAVLVKPGASVKLSCPASGFNIKDTYIHWVIQRPEQGLEWIGRIDPANGDTKCDPKFQVKATITADTSSNTAYLQLSSLTSEDTAVYFCVRDYLYPYYFDFWGQGTTLTVSS VL: KIVLTQSPGTLSLSPGERATLSCRASESVDTYVSWYQQKPGQAPRLLIYGASNRYTGIPDRFSGSGSGTDFTLTISRLEPEDFADYYCGQTYNYPLTFGQGTKLEI
0.000364	clone 494 VH 0 (mu) / VL 2 (antibody, V domains shown) VH: EVQLQQSGAVLVKPGASVKLSCPASGFNIKDTYIHWVIQRPEQGLEWIGRIDPANGDTKCDPKFQVKATITADTSSNTAYLQLSSLTSEDTAVYFCVRDYLYPYYFDFWGQGTTLTVSS VL: KIVLTQSPGTLSLSPGERATLSCRASESVDTYVSWYQQKPGQAPRLLIYGASNRYTGVPDRFSGSGSGTDFTLTISRLEPEDFADYYCGQTYNYPLTFGQGTKLEI
0.000339	clone 494 VH 0 (mu) / VL 3 (antibody, V domains shown) VH: EVQLQQSGAVLVKPGASVKLSCPASGFNIKDTYIHWVIQRPEQGLEWIGRIDPANGDTKCDPKFQVKATITADTSSNTAYLQLSSLTSEDTAVYFCVRDYLYPYYFDFWGQGTTLTVSS VL: EIVLTQSPGTLSLSPGERATLSCRASESVDTYVSWYQQKPGQAPRLLIYGASNRYTGVPDRFSGSGSGTDFTLTISRLEPEDFADYYCGQTYNYPLTFGQGTKLEI
0.000137	clone 494 VH 1 / VL 0 (mu) (antibody, V domains shown) VH: QVQLVQSGAEVKKPGASVKVSCKASGFNIKDTYIHWVIQAPGQGLEWMGRIDPANGDTKSDPKFQVRVTITADTSTSTVYMELSSLRSEDTAVYYCVRDYLYPYYFDFWGQGTTVTVSS VL: KIVMTQSPKSMSMSVGERVTLNCRASESVDTYVSWYQQKPEQSPELLIYGASNRYTGVPDRFTGSGSATDFTLTISSVQAEDLADYYCGQTYNYPLTFGAGTKLELKR
0.000703	clone 494 VH 2 / VL 4 (antibody, V domains shown) VH: QVQLVQSGAEVKKPGASVKVSCKASGFNIKDTYIHWVIQAPGQGLEWMGRIDPANGDTKSAPKFQVRVTITADTSTSTVYMELSSLRSEDTAVYYCVRDYLYPYYFDFWGQGTTVTVSS VL: KIVLTQSPGTLSLSPGERATLSCRASESVDTYVSWYQQKPGQAPRLLIYGASNRYTGIPDRFSGSGSGTDFTLTISRLEPEDFADYYCGQTYNYPLTFGQGTKLEI
0.000452	clone 494 VH 4 / VL 3 (antibody, V domains shown) VH: QVQLVQSGAEVKKPGSSVKVSCKASGFNIKDTYIHWVIQAPGQGLEWMGRIDPANGDTKSDPKFQGRVTITADESTSTAYMELSSLRSEDTAVYYCVRDYLYPYYFDFWGQGTTVTVSS VL: EIVLTQSPGTLSLSPGERATLSCRASESVDTYVSWYQQKPGQAPRLLIYGASNRYTGVPDRFSGSGSGTDFTLTISRLEPEDFADYYCGQTYNYPLTFGQGTKLEI
0.000438	clone 494 VH 4 / VL 2 (antibody, V domains shown) VH: QVQLVQSGAEVKKPGSSVKVSCKASGFNIKDTYIHWVIQAPGQGLEWMGRIDPANGDTKSDPKFQGRVTITADESTSTAYMELSSLRSEDTAVYYCVRDYLYPYYFDFWGQGTTVTVSS VL: KIVLTQSPGTLSLSPGERATLSCRASESVDTYVSWYQQKPGQAPRLLIYGASNRYTGVPDRFSGSGSGTDFTLTISRLEPEDFADYYCGQTYNYPLTFGQGTKLEI
0.000177	clone 494 VH 4 / VL 0 (mu) (antibody, V domains shown) VH: QVQLVQSGAEVKKPGSSVKVSCKASGFNIKDTYIHWVIQAPGQGLEWMGRIDPANGDTKSDPKFQGRVTITADESTSTAYMELSSLRSEDTAVYYCVRDYLYPYYFDFWGQGTTVTVSS VL: KIVMTQSPKSMSMSVGERVTLNCRASESVDTYVSWYQQKPEQSPELLIYGASNRYTGVPDRFTGSGSATDFTLTISSVQAEDLADYYCGQTYNYPLTFGAGTKLELKR
0.00043	clone 494 VH 2 / VL 3 (antibody, V domains shown) VH: QVQLVQSGAEVKKPGASVKVSCKASGFNIKDTYIHWVIQAPGQGLEWMGRIDPANGDTKSAPKFQVRVTITADTSTSTVYMELSSLRSEDTAVYYCVRDYLYPYYFDFWGQGTTVTVSS VL: EIVLTQSPGTLSLSPGERATLSCRASESVDTYVSWYQQKPGQAPRLLIYGASNRYTGVPDRFSGSGSGTDFTLTISRLEPEDFADYYCGQTYNYPLTFGQGTKLEI
0.000657	clone 494 VH 1 / VL 4 (antibody, V domains shown) VH: QVQLVQSGAEVKKPGASVKVSCKASGFNIKDTYIHWVIQAPGQGLEWMGRIDPANGDTKSDPKFQVRVTITADTSTSTVYMELSSLRSEDTAVYYCVRDYLYPYYFDFWGQGTTVTVSS VL: KIVLTQSPGTLSLSPGERATLSCRASESVDTYVSWYQQKPGQAPRLLIYGASNRYTGIPDRFSGSGSGTDFTLTISRLEPEDFADYYCGQTYNYPLTFGQGTKLEI
0.000683	clone 494 VH 3 / VL 4 (antibody, V domains shown) VH: QVQLVQSGAEVKKPGASVKVSCKASGFNIKDTYIHWVIQAPGQGLEWMGRIDPANGDTKSDPKFQGRVTITADTSTSTVYMELSSLRSEDTAVYYCVRDYLYPYYFDFWGQGTTVTVSS VL: KIVLTQSPGTLSLSPGERATLSCRASESVDTYVSWYQQKPGQAPRLLIYGASNRYTGIPDRFSGSGSGTDFTLTISRLEPEDFADYYCGQTYNYPLTFGQGTKLEI
0.000399	clone 494 VH 1 / VL 2 (antibody, V domains shown) VH: QVQLVQSGAEVKKPGASVKVSCKASGFNIKDTYIHWVIQAPGQGLEWMGRIDPANGDTKSDPKFQVRVTITADTSTSTVYMELSSLRSEDTAVYYCVRDYLYPYYFDFWGQGTTVTVSS VL: KIVLTQSPGTLSLSPGERATLSCRASESVDTYVSWYQQKPGQAPRLLIYGASNRYTGVPDRFSGSGSGTDFTLTISRLEPEDFADYYCGQTYNYPLTFGQGTKLEI
0.000454	clone 494 VH 2 / VL 1 (antibody, V domains shown) VH: QVQLVQSGAEVKKPGASVKVSCKASGFNIKDTYIHWVIQAPGQGLEWMGRIDPANGDTKSAPKFQVRVTITADTSTSTVYMELSSLRSEDTAVYYCVRDYLYPYYFDFWGQGTTVTVSS VL: KIQMTQSPSSLSASVGDRVTITCRASESVDTYVSWYQQKPGKAPKLLIYGASNRYTGVPSRFSGSGSGTDFTLTISSLQPEDFADYYCGQTYNYPLTFGQGTKLEI
0.000148	clone 494 VH 3 / VL 0 (mu) (antibody, V domains shown) VH: QVQLVQSGAEVKKPGASVKVSCKASGFNIKDTYIHWVIQAPGQGLEWMGRIDPANGDTKSDPKFQGRVTITADTSTSTVYMELSSLRSEDTAVYYCVRDYLYPYYFDFWGQGTTVTVSS VL: KIVMTQSPKSMSMSVGERVTLNCRASESVDTYVSWYQQKPEQSPELLIYGASNRYTGVPDRFTGSGSATDFTLTISSVQAEDLADYYCGQTYNYPLTFGAGTKLELKR
0.000448	clone 494 VH 4 / VL 1 (antibody, V domains shown) VH: QVQLVQSGAEVKKPGSSVKVSCKASGFNIKDTYIHWVIQAPGQGLEWMGRIDPANGDTKSDPKFQGRVTITADESTSTAYMELSSLRSEDTAVYYCVRDYLYPYYFDFWGQGTTVTVSS VL: KIQMTQSPSSLSASVGDRVTITCRASESVDTYVSWYQQKPGKAPKLLIYGASNRYTGVPSRFSGSGSGTDFTLTISSLQPEDFADYYCGQTYNYPLTFGQGTKLEI
0.000386	clone 494 VH 1 / VL 3 (antibody, V domains shown) VH: QVQLVQSGAEVKKPGASVKVSCKASGFNIKDTYIHWVIQAPGQGLEWMGRIDPANGDTKSDPKFQVRVTITADTSTSTVYMELSSLRSEDTAVYYCVRDYLYPYYFDFWGQGTTVTVSS VL: EIVLTQSPGTLSLSPGERATLSCRASESVDTYVSWYQQKPGQAPRLLIYGASNRYTGVPDRFSGSGSGTDFTLTISRLEPEDFADYYCGQTYNYPLTFGQGTKLEI
0.000415	clone 494 VH 3 / VL 2 (antibody, V domains shown) VH: QVQLVQSGAEVKKPGASVKVSCKASGFNIKDTYIHWVIQAPGQGLEWMGRIDPANGDTKSDPKFQGRVTITADTSTSTVYMELSSLRSEDTAVYYCVRDYLYPYYFDFWGQGTTVTVSS VL: KIVLTQSPGTLSLSPGERATLSCRASESVDTYVSWYQQKPGQAPRLLIYGASNRYTGVPDRFSGSGSGTDFTLTISRLEPEDFADYYCGQTYNYPLTFGQGTKLEI
0.000156	clone 494 VH 2 / VL 0 (mu) (antibody, V domains shown) VH: QVQLVQSGAEVKKPGASVKVSCKASGFNIKDTYIHWVIQAPGQGLEWMGRIDPANGDTKSAPKFQVRVTITADTSTSTVYMELSSLRSEDTAVYYCVRDYLYPYYFDFWGQGTTVTVSS VL: KIVMTQSPKSMSMSVGERVTLNCRASESVDTYVSWYQQKPEQSPELLIYGASNRYTGVPDRFTGSGSATDFTLTISSVQAEDLADYYCGQTYNYPLTFGAGTKLELKR
0.000476	clone 494 VH 3 / VL 1 (antibody, V domains shown) VH: QVQLVQSGAEVKKPGASVKVSCKASGFNIKDTYIHWVIQAPGQGLEWMGRIDPANGDTKSDPKFQGRVTITADTSTSTVYMELSSLRSEDTAVYYCVRDYLYPYYFDFWGQGTTVTVSS VL: KIQMTQSPSSLSASVGDRVTITCRASESVDTYVSWYQQKPGKAPKLLIYGASNRYTGVPSRFSGSGSGTDFTLTISSLQPEDFADYYCGQTYNYPLTFGQGTKLEI

These binders were tested against T1, human transferrin receptor (assay: BIAcore).

BIAcore t1/2 [min]	Binder
19	clone-299 (antibody, V domains shown, Rabbit variable domains) VH: QSMEESGGRLVTPGTPLTLTCTVSGFSLSSYAMSWVRQAPGKGLEWIGYIWSGGSTDYASWAKGRFTISKTSTTVDLKITSPTTEDTATYFCARRYGTSYPDYGDANGFDPWGPGTLVTVSS VL: AYDMTQTPASVEVAVGGTVTIKCQASQSISSYLSWYQQKPGQRPKLLIYRASTLASGVSSRFKGSGSGTQFTLTISGVECADAATYYCQQCYSSSNVDNTFGGGTEVVVK

What follows are binders tested against T2, cynomolgus transferrin receptor (cynomolgus, UniProt H9EXL1 89-760 (rhesus entry)) (assay: BIAcore).
T2 construct: also called cyTfR; Cyno TfR
T2 sequence (chain, as listed by the source): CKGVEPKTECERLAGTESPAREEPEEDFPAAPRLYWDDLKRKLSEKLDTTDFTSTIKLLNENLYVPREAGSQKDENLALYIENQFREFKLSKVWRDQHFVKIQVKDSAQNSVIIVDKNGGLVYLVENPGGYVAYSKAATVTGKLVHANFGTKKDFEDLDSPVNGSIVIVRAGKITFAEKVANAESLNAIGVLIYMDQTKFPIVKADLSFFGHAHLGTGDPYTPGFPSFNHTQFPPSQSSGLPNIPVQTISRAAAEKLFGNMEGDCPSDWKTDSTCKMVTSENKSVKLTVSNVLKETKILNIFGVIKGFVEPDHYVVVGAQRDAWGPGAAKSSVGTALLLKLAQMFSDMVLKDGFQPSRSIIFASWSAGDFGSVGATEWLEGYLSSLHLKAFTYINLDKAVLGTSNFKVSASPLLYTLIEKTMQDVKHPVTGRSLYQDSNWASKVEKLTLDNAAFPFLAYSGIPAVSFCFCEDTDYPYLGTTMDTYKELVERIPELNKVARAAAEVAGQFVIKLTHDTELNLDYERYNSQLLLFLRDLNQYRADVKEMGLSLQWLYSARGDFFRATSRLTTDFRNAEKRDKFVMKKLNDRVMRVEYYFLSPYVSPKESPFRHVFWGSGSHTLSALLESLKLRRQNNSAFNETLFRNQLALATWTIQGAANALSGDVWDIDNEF

BIAcore t1/2 [min]	Binder
42	clone-299 (antibody, V domains shown, Rabbit variable domains) VH: QSMEESGGRLVTPGTPLTLTCTVSGFSLSSYAMSWVRQAPGKGLEWIGYIWSGGSTDYASWAKGRFTISKTSTTVDLKITSPTTEDTATYFCARRYGTSYPDYGDANGFDPWGPGTLVTVSS VL: AYDMTQTPASVEVAVGGTVTIKCQASQSISSYLSWYQQKPGQRPKLLIYRASTLASGVSSRFKGSGSGTQFTLTISGVECADAATYYCQQCYSSSNVDNTFGGGTEVVVK

The binders below were run against T3, cynomolgus transferrin receptor on stably transfected CHO cells (cynomolgus) (assay: FACS, cyno against human TfR CHO cells).
T3 construct: whole, on cells; also called Cyno TfR-CHO; cyTfR (FACS)

ratio EC50 Cyno/ human	ratio max Cyno/ human	Binder
0.9	1	clone-299 (antibody, V domains shown, Rabbit variable domains) VH: QSMEESGGRLVTPGTPLTLTCTVSGFSLSSYAMSWVRQAPGKGLEWIGYIWSGGSTDYASWAKGRFTISKTSTTVDLKITSPTTEDTATYFCARRYGTSYPDYGDANGFDPWGPGTLVTVSS VL: AYDMTQTPASVEVAVGGTVTIKCQASQSISSYLSWYQQKPGQRPKLLIYRASTLASGVSSRFKGSGSGTQFTLTISGVECADAATYYCQQCYSSSNVDNTFGGGTEVVVK

From patent EP4814018A2 (F. Hoffmann-La Roche AG, dated 2026)
